{"source": "patent US20040109861A1", "about": "(MYRIAD GENETICS, published 2004)", "binders": {"B1": {"name": "p6(1-14) peptide (GAGp6 peptide containing the first 14 amino acid residues) (peptide)", "peptide": "LQSRPEPTAPPEES", "notes": "also called first 14 amino acid residues of HIV GAGp6"}}, "target": "T1, myc-tagged Tsg101 (residues 1-207) (human, UniProt Q99816 1-207)", "T1 construct": "range 1-207; Used as Drosophila S2 cell lysate, not purified; The tag is placed N-terminal from the name myc-Tsg101; also called myc-Tsg101(1-207); myc-Tsg101 (1-207)", "T1 sequence": "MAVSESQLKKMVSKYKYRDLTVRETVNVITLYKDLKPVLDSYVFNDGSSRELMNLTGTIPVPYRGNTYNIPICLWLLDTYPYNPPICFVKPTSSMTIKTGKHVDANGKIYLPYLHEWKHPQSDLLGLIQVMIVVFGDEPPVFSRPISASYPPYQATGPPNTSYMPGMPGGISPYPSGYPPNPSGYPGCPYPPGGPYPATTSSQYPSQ", "assay": "plate competition assay, competitor of coated GST-p6 for myc-Tsg101(1-207)"}
{"binder": "B1", "values": [{"measurement": "binding result", "value": "binds"}]}
